Data published in patent CN117264055A (SHANGHAI HRAIN BIOTECHNOLOGY CO LTD, dated 2023).
Residue numbers refer to the chain shown, from its start.

T1: 重组人CD318-avi-his抗原蛋白 (human, UniProt Q9H5V8 30-667)
T1 construct: Coated on ELISA plates at 100 ng per well; also called 重组人CD318蛋白; CDCP1
T1 sequence: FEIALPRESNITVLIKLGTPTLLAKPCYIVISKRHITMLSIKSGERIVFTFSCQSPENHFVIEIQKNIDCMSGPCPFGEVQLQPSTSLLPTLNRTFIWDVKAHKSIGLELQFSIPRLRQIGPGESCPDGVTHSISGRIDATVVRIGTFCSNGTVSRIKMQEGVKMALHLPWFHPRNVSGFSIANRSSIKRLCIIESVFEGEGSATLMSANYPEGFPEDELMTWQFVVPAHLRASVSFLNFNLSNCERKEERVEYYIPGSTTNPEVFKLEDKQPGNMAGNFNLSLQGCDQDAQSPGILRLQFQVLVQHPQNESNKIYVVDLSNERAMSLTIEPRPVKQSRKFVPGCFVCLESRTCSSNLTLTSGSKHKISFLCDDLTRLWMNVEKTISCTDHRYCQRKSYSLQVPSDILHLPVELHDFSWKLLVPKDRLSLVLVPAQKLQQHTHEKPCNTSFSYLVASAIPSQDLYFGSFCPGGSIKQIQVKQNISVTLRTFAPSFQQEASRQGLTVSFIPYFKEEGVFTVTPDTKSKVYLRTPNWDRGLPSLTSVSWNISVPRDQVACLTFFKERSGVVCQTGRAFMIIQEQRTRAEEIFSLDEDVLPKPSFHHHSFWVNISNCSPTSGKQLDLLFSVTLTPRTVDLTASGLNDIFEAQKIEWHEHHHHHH

T2: 生物素化的CD318蛋白 (human, UniProt Q9H5V8 30-667, biotin on the avi-tag)
T2 construct: Used 1:200 to stain CAR-T cells; also called 生物素-标记的CD318抗原; biotinylated recombinant human CD318-avi-his
T2 sequence: T1 sequence

B1: 4A4 (VHH)
VHH: QVQLVESGGGLVQAGGSLRLSCAASGSIFSGSAMGWYRQAPGKQRELVVVESSGGSTNYADSVKGRFTISRDNAKNTVYLQMNSLKPEDTAVYYCRGFYYGMGYWGKGTQVTVSS
notes: Tested as a periplasmic extract from TG1 (pcomb3X phagemid) and detected with anti-HA HRP; also called CD318 VHH 4A4
B2: 4A8 (VHH)
VHH: EVQLVESGGGLVQPGGSLRLSCAASGFTSDYYAIGWFRQAPGKEREGVSCINNSDGSTYYADSVKGRFTISRDNAKNTVYLQMNSLKPEDTAVYYCAADDDVVAGFSCASYRYLELWGQGTLVTVSS
notes: Tested as a periplasmic extract from TG1 (pcomb3X phagemid) and detected with anti-HA HRP; also called CD318 VHH 4A8
B3: 4A8-BBz (other)
chain: EVQLVESGGGLVQPGGSLRLSCAASGFTSDYYAIGWFRQAPGKEREGVSCINNSDGSTYYADSVKGRFTISRDNAKNTVYLQMNSLKPEDTAVYYCAADDDVVAGFSCASYRYLELWGQGTLVTVSSTTTPAPRPPTPAPTIASQPLSLRPEACRPAAGGAVHTRGLDFACDIYIWAPLAGTCGVLLLSLVITLYCRFSVVKRGRKKLLYIFKQPFMRPVQTTQEEDGCSCRFPEEEEGGCELRVKFSRSADAPAYQQGQNQLYNELNLGRREEYDVLDKRRGRDPEMGGKPRRKNPQEGLYNELQKDKMAEAYSEIGMKGERRRGKGHDGLYQGLSTATKDTYDALHMQALPPR
notes: Chimeric antigen receptor: CD8 signal peptide, VHH, CD8a hinge, CD8a transmembrane, 4-1BB, CD3zeta; also called 4A8 CD318 CAR
B4: 4B7 (VHH)
VHH: EVQLVETGGGLVQPGGSLRLSCAASGFTLDYYAIGWFRQAPGKEREGVSCITSSDDNTYYADSVKGRFTISRDNAKNTVYLQMNSLKPEDTAVYYCATDALSIRRSSCQLGPTAYFGMDYWGKGTLVTVSS
notes: Tested as a periplasmic extract from TG1 (pcomb3X phagemid) and detected with anti-HA HRP; also called CD318 VHH 4B7
B5: 4A10-BBz (other)
chain: EVQVVESGGGLVQAGGSLRLSCVASGSNDSMTAMGWYRQAPGKQREMVAVSTSTGTAIYGDSMKGRFTIARDNAKNTVYLQMNSLNFEDTAVYYCRNFIRGRDYWGQGTQVTVSSTTTPAPRPPTPAPTIASQPLSLRPEACRPAAGGAVHTRGLDFACDIYIWAPLAGTCGVLLLSLVITLYCRFSVVKRGRKKLLYIFKQPFMRPVQTTQEEDGCSCRFPEEEEGGCELRVKFSRSADAPAYQQGQNQLYNELNLGRREEYDVLDKRRGRDPEMGGKPRRKNPQEGLYNELQKDKMAEAYSEIGMKGERRRGKGHDGLYQGLSTATKDTYDALHMQALPPR
notes: Chimeric antigen receptor: CD8 signal peptide, VHH, CD8a hinge, CD8a transmembrane, 4-1BB, CD3zeta; also called 4A10 CD318 CAR
B6: 4A10 (VHH)
VHH: EVQVVESGGGLVQAGGSLRLSCVASGSNDSMTAMGWYRQAPGKQREMVAVSTSTGTAIYGDSMKGRFTIARDNAKNTVYLQMNSLNFEDTAVYYCRNFIRGRDYWGQGTQVTVSS
notes: Tested as a periplasmic extract from TG1 (pcomb3X phagemid) and detected with anti-HA HRP; also called CD318 VHH 4A10
B7: 4B2 (VHH)
VHH: B6 VHH with N28S, T32N, M47T, T54V, M63V, A70S, N97I, I99S
notes: Tested as a periplasmic extract from TG1 (pcomb3X phagemid) and detected with anti-HA HRP; also called CD318 VHH 4B2
B8: 4G2 (VHH)
VHH: QVQLVESGGGLVQAGGSLRLSCAAFGNKYDFNTMGWYRQGPGKQRELVATIAAGGRTNYADSAKGRFTISRDNAKNTVYLQMNSLKPEDTAVYYCSAERVKNHYADYALDDYWGQGIQVTVSS
notes: Tested as a periplasmic extract from TG1 (pcomb3X phagemid) and detected with anti-HA HRP; also called CD318 VHH 4G2

Tests used:
重组人CD318-avi-his抗原蛋白 = target: T1, 重组人CD318-avi-his抗原蛋白; test: ELISA, coated recombinant human CD318, periplasmic extract, anti-HA HRP
生物素化的CD318蛋白 = target: T2, 生物素化的CD318蛋白; test: flow cytometry, CAR-T cells stained with biotinylated CD318 antigen and PE-streptavidin

Row | Binder | binding result (重组人CD318-avi-his抗原蛋白) | binding result (生物素化的CD318蛋白)
1 | B1 | binds | 
2 | B2 | binds | 
3 | B3 |  | binds
4 | B4 | binds | 
5 | B5 |  | binds
6 | B6 | binds | 
7 | B7 | binds | 
8 | B8 | binds | 
